# Results as given in the RNAGym collection of RNA variant scans (doi:10.1073/pnas.2313332121).
# B1: TPR t1 (parent)
# chain: GACCAAUCUGCCCUCAGAGCUCGAGAACAUCUUCGGAUGCAGAGGAGGCAGGCUUCGGUGGCGCGAUAGCGCCAACGUCCUCAACCUCCAAUGCAUCCCACCACAUGAUGAUGCCUGAAGAGCCUUGGUUUUUUG
# Variants of: B1
# Assay: polymerase ribozyme fitness, log enrichment relative to wild type (log ratio); higher = more active; in vitro selection for triplet polymerase activity
# Outline: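 Mutant libraries of both subunits of a heterodimeric triplet polymerase ribozyme were PCR-built, transcribed, and selected once in triplicate, with frozen incubation at −7 °C and capture of gel-excised extended constructs on streptavidin beads before RT-PCR. Illumina sequencing of input and output libraries was filtered to genotypes with ≥10 input reads and ≥1 read per output. Fitness is the logarithm of genotype enrichment over wild-type enrichment, using inverse-variance-weighted replicate averages. The logarithm is base 2.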
row,Variant,polymerase ribozyme fitness (log ratio)
1,C70U U109G,-4.21
2,G69U C98U,0.082
3,C70G C124U U130C,-0.523
4,C72G U81A U130A,-1.44
5,C72G U109A C123A,-5.46
6,G69U C82U,-0.267
7,G69U C82G,-1.46
8,G71U G113C C114U G128A,-3.3
9,C70A C124U,-0.369
10,C70A C124A,-0.104
11,G71A A74C A105C,-5.44
12,G71A U116C,-1.26
13,G71A U116A,-3.85
14,C72U A74U U81C,-0.388
15,C70A G117U A121C U130C,-4.1
16,C72G U78C,-0.909
17,C72A C101A,-1.15
18,G71C C94A,-4.08
19,G71C C102U,-3.11
20,C72A C114G,-2.31
21,G69U C76U G93C U132C,-2.06
22,C70A C79A A91C G120U,-7.09
23,G71A A111C,-0.4
24,C72A U112C G127C,0.93

row,Variant,polymerase ribozyme fitness (log ratio)
1,G71U G128U,-2.61
2,C70U C76U U106C U133G,-1.64
3,C72G G93C,-1.92
4,C72A G107U,-3.81
5,G71A C94G,-2.57
6,C70U A103U G120C U131C,-5.74
7,C72A A95G C97G C104A A118U G127C,-5.66
8,G69U G117A,-0.296
9,C70G G135A,-3.36
10,C70A U106A,-1.51
11,C70U C88A C115U,-3.07
12,C70G C79G C98U U109G U125A,-7.56
13,G71A C114U G127U,-5.52
14,C72G U130G,-1.24
15,G71A A105U,-3.04
16,C70U C97G,-5.32
17,G71A G117A,-1.44
18,G69U C86U U109A C115G U126A,-7.39
19,C72G C94G G113A G122U,-3.41
20,C72G U132A,-0.151
21,C70U C101A U106C U133A,-0.685
22,C70U C101A,-1.9
23,C70U U78C C80A C97U U129A,-5.63
24,G71U A84C,-0.343

row,Variant,polymerase ribozyme fitness (log ratio)
1,C70A C79A,-3.11
2,C70U C85U,-0.917
3,C70U C85A,-2.12
4,G71U C124U,1.13
5,G69U C114A A121G U130G,0.399
6,C72U A84U C101A C115U G127A G128C,-6.94
7,G71A G77A U78G,-4.6
8,G69U U87A G127U U130A G135U,-2.93
9,C70A U125A G128A,-3.04
10,C70U C85G U87A A111G G120A,-5.35
11,G71C C85U,-2.23
12,G71C C85A,-3.19
13,C72G A100U,-0.592
14,G71A C86A A111C G113C,-5.65
15,C72G A90U,-1.11
16,G71A C124U,1.42
17,C72A G135C,-0.133
18,G71U A103G,-5.01
19,G71U A103C,-5.76
20,G71U G113C,-1.47
21,G71U G113U,-1.67
22,C70G G127U,-3.25
23,C72G A83G C115A,-4.27
24,G71U A100U,-1.2

row,Variant,polymerase ribozyme fitness (log ratio)
1,G69U C79U,-0.838
2,C70U A121C,1.13
3,G71A C79U A83G U129G,-3.32
4,G71A C72G C114U,-4.69
5,G71U C99U G120U,-4.26
6,G69U C114A,-0.78
7,C70U U116A,-3.33
8,G69U U133A,-0.00372
9,G69U C89G,-0.225
10,G69U C115A G120A,0.825
11,C70U G117U A118U U130C,-3.8
12,C70U C72A C85A,-2.03
13,G71U U129C,-0.505
14,G71U U129A,-1.8
15,C72A A83U G128U,-2.86
16,C70U C80U,-0.851
17,G71U U116C,-0.726
18,C70A G128U,-3.9
19,G69U C79G U109G,-2.86
20,C72G G128C,-2.25
21,G71U U132A,0.382
22,C72G C124A,1.03
23,C72G C124G,1.51
24,C72A U92A A119G G127C,-1.04

row,Variant,polymerase ribozyme fitness (log ratio)
1,G71U C94U G117C,-3.99
2,G71U C72A C89A G117A,-5.63
3,G69U G128A,-1.19
4,G69U C72U G117A,-0.708
5,C70U G113A U131A,-0.868
6,G71A U133G,-0.389
7,G71C C114U G122A U129A,-4.82
8,G69U C88A A90U,0.178
9,C70U C102A,-1.86
10,G71U C89U C101U C123U G128C,-1.14
11,C70U A74U C86A,-4.13
12,G69U C70G U87G G117A,-1.97
13,G71U U78C C98U A119U,-1.19
14,C72G U78G G110U,-2.55
15,G69U C72A,-2.5
16,C72A G93A C98U U125G,-1.8
17,C72G A119U C124G,1.57
18,G71U G120C,0.378
19,C70G C73A,-4.66
20,G71C U78G,-3.19
21,G71A C89G,-2.03
22,G71A G127A,-2.33
23,C70U C94A,-1.13
24,C70U C94G,-0.729

row,Variant,polymerase ribozyme fitness (log ratio)
1,G71A U96A U116A,-3.94
2,C72A U78A,0.142
3,C72A U78C,-0.145
4,G69U G127A U131A,-2.75
5,C72A U81C C82A,-1.12
6,C70G G117C,-5.07
7,G69U C123A,1.34
8,G69U C104U,0.349
9,C70G A111C,-3.24
10,C70G A111U,-5.55
11,G71U G135C,0.388
12,G71C C124G G128U,-1.25
13,C70U C114A G128U,-4.2
14,C70U C80U U96A U106C,-4.08
15,C70U G113U,-2.81
16,C72U A84U C101U,-0.839
17,C70U U112A,0.732
18,G71A G120U,0.349
19,G71A G120U U126C,-1.26
20,C70U C88U,-0.847
21,G71U A121G U125A,1.48
22,G71U C114G,-2.81
23,C72A C97U,0.226
24,G71C C104A,-3.63

row,Variant,polymerase ribozyme fitness (log ratio)
1,C72G C97A,-5.43
2,G71C U81C U129C U130A,-3.37
3,C70G A103U G120A A121C C123U,-5.54
4,G71C C114U,-3.55
5,G71C C114A,-2.75
6,G71U A91U U96C,-3.7
7,G71A G110U,-2.36
8,C72G U92A,-3.94
9,C72G U92G,-3.48
10,G71A C79G G127A,-3.33
11,G71A C123A,-0.22
12,G71U U81G U112A,-5.24
13,C72G C79G U133A,-1.07
14,G71A A83U C115U C123G G135U,-4.34
15,C72G U116A,-3.49
16,C70U U87C,0.738
17,G71C G110A,-2.2
18,G71C G113A,-1.54
19,C70A C94U A100C,-2.44
20,G71A C82A,-1.72
21,C72G C123G,1.26
22,G69U U112G C124A U133C,2.87
23,C72A C99U U109G,-6.16
